Test results published in article PMC3020078.
“And” between values parts separate entries of the source, which are not always exact repeats. Identical values can stand only once.

Legend:
[1] = target: cpMVPvsvg vaults (MVP with an N-terminal cysteine rich peptide and a C-terminal VSVG tag); assay: co-IP
[2] = target: cpMVP vaults (MVP with an N-terminal cysteine rich peptide); assay: SAXS

“HisT7MVP vaults (MVP with N-terminal T7 tag) (from UniProt Q62667 1-861) (natural protein)” gave a stoichiometry N (HisT7MVP:cpMVPvsvg) [1] of 0.8.
In the case of “cpMVP vaults (MVP with an N-terminal cysteine rich peptide) (natural protein)”, the percent of the protein mass as full vaults [2] is reported as 46% and 49%.
